Results taken from US20230220458.

Tested on: HhaI restriction endonuclease
Assay: cleavage_in_vitro
Settings: 37 C 2 h

Sequence	activity (cycles (deltaCq test vs control locus)) (100% dsDNA, no visible amplification of test locus after digestion)	activity (cycles (deltaCq test vs control locus)) (100% ssDNA, digestion impaired)
CGGATAGCGCGGCGGGCGACAGCCCCCCGGATAACCCCGCCGAGGGAGGGGCGCTTGTAAAACCGAGCGGCG (double strand) [lung cancer test locus, unmethylated genomic dsDNA (A-673)]	> 18	–
CGGATAGCGCGGCGGGCGACAGCCCCCCGGATAACCCCGCCGAGGGAGGGGCGCTTGTAAAACCGAGCGGCG [lung cancer test locus, synthetic ssDNA oligonucleotide]	–	7.51
